We go through ten molecules from US20240116985A1, “STAPLED PEPTIDES AND METHODS THEREOF” (priority 2020, published 2024).

Starred links: 1 amine or outer side, 2 acyl side, 3 side chain; linkers in the order of their positions; H or OH if unused. Positions of bridges follow the written chain, without caps; N, C: chain ends. Non-standard residues stand in square brackets, D forms with d. Primed or numbered codes have the meaning given here. No end group written: not given here. PyrS2″ = (S)-3-amino-1-((pent-4-en-1-yloxy)carbonyl)pyrrolidine-3-carboxylic acid (stapling residue), C=CCCCOC(=O)N1CC[C@@](N[*:1])(C(=O)[*:2])C1; B5(16) = 2-amino-2-(pent-4-en-1-yl)hept-6-enoic acid = 2,2-bis(4-pentenyl)glycine (stitching residue), C=CCCCC(CCCC=C)(N[*:1])C(=O)[*:2]; B5(4) = 2,2-bis(4-pentenyl)glycine = 2-amino-2-(pent-4-en-1-yl)hept-6-enoic acid (stitching residue), C=CCCCC(CCCC=C)(N[*:1])C(=O)[*:2]; B5(5) = 2,2-bis(4-pentenyl)glycine, 2-amino-2-(pent-4-en-1-yl)hept-6-enoic acid (stitching residue), C=CCCCC(CCCC=C)(N[*:1])C(=O)[*:2]; PyrS2 = (S)-3-amino-1-((pent-4-en-1-yloxy)carbonyl)pyrrolidine-3-carboxylic acid, C=CCCCOC(=O)N1CC[C@@](N[*:1])(C(=O)[*:2])C1; Phe(3-COOH) = N[C@@H](Cc1cccc(C(=O)O)c1)C(=O)O; Phe(2-CF3) = N[C@@H](Cc1ccccc1C(F)(F)F)C(=O)O; Phe(2-Cl) = N[C@@H](Cc1ccccc1Cl)C(=O)O; Bta = N[C@@H](Cc1csc2ccccc12)C(=O)O; αAllylPro = C=CC[C@@]1(C(=O)O)CCCN1; tBuAla = CC(C)(C)C[C@H](N)C(=O)O; Cha = N[C@@H](CC1CCCCC1)C(=O)O; Thr(ol) = C[C@@H](O)[C@H](N)CO

By IC50 is commonly meant the concentration needed to halve the response being measured. In general, EC50 refers to the midpoint of the concentration-response curve.

One assay concerns the target full-length beta-Catenin (Uniprot ID P35222) (Homo sapiens (Human)) (UniProt P35222). Kind of assay: fluorescence polarization competition; full-length beta-catenin with 5FAM-TCF4(10-53) probe, peptide titrated. In general terms: Fluorescence polarisation rises when a labelled molecule tumbles more slowly, as on binding a larger partner.
Target sequence in this assay (P35222 whole entry, one chain of several): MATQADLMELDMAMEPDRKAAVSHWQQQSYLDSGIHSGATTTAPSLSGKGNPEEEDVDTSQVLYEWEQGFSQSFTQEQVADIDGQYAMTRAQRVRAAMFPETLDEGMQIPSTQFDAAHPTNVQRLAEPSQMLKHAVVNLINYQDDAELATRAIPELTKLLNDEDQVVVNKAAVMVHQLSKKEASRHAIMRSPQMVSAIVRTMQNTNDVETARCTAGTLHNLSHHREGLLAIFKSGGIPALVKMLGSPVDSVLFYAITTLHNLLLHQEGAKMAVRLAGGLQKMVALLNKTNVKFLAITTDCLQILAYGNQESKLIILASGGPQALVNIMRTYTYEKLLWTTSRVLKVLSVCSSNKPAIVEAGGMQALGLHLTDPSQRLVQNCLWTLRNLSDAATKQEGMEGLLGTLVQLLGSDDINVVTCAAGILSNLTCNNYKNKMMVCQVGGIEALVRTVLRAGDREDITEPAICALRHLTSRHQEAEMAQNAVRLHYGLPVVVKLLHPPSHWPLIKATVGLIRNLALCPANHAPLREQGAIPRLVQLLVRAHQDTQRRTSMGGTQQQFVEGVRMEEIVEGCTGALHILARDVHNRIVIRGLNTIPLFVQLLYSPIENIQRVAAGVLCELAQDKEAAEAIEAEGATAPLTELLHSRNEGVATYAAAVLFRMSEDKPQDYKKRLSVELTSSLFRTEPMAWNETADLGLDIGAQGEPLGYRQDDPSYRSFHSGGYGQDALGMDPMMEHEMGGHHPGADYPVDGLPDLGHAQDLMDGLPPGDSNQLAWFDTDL
Take Ac-[αAllylPro]D[Cha][B5(5)]DDAAFN[PyrS2″][Phe(2-Cl)][Bta]S-NH2 (staple 1-4, 4-11) [I-1046]: the IC50 was found to be 5 nM.

The molecule Ac-[αAllylPro]D[Cha][B5(5)]DDAAFS[PyrS2][Phe(2-Cl)][Bta]S-NH2 (staple 1-4, 4-11) [I-1050] gave an IC50 of 5 nM.

In turn, Ac-[αAllylPro]D[Cha][B5(5)]DDAAFS[PyrS2″][Phe(2-Cl)][Bta]Q-NH2 (staple 1-4, 4-11) [I-1044] came in with an IC50 of 5 nM.

In the next assay the target is Bcat-Halo (UniProt P35222). Kind of assay: NanoBRET absolute IC50, HEK293 cells, Bcat-Halo/TCF4-Luc engagement. On the technique in general: Bioluminescence resonance energy transfer reports proximity on the nanometre scale.
Sequence of Bcat-Halo (P35222 whole entry): as the sequence (P35222 whole entry, one chain of several) above
Molecule [αAllylPro]D[tBuAla][B5(4)]D[Phe(3-COOH)]AAFF[PyrS2″][Phe(2-Cl)][Bta]Q-NH2 (staple 1-4; staple 4-11 (inferred)) [I-1338] had a half-maximal inhibitory concentration (IC50) of 3600 nM.

On to [αAllylPro]D[tBuAla][B5(4)]D[Phe(3-COOH)]AAFF[PyrS2″][Phe(2-CF3)][Bta]Q-NH2 (staple 1-4; staple 4-11 (inferred)) [I-1341], for which the half-maximal inhibitory concentration (IC50) was 3500 nM.

In turn, [αAllylPro]D[tBuAla][B5(4)]D[Phe(3-COOH)]AAFF[PyrS2″][Phe(2-Cl)][Bta]S-NH2 (staple 1-4; staple 4-11 (inferred)) [I-1339] yielded a half-maximal inhibitory concentration (IC50) of 5200 nM.

Turning to [αAllylPro]D[tBuAla][B5(4)]D[Phe(3-COOH)]AAFF[PyrS2″][Phe(2-Cl)][Bta][Thr(ol)] (staple 1-4; staple 4-11 (inferred)) [I-1340], the IC50 came out at 6800 nM.

Regarding [αAllylPro]D[tBuAla][B5(4)]D[Phe(3-COOH)]AAFF[PyrS2″][Phe(2-CF3)][Bta]S-NH2 (staple 1-4; staple 4-11 (inferred)) [I-1342], the IC50 was determined as 7000 nM.

The target in a further assay is Bcat-Halo (UniProt P35222). Kind of assay: NanoBRET (Abs IC50) in HEK293 cells; Bcat-Halo / TCF4-Luc.
For the molecule Ac-[αAllylPro]D[tBuAla][B5(5)]D[Phe(3-COOH)]AAFA[PyrS2″][Phe(2-Cl)][Bta]V-NH2 (staple 1-4, 4-11) [I-2024], the IC50 came out at 17900 nM.

Turning to Ac-[αAllylPro]D[tBuAla][B5(5)]D[Phe(3-COOH)]AAFN[PyrS2″][Phe(2-Cl)][Bta]V-NH2 (staple 1-4, 4-11) [I-2032], the IC50 was 20900 nM.

In another assay the target is full-length beta-Catenin (Uniprot ID P35222) (Homo sapiens (Human)) (UniProt P35222). Kind of assay: FP competition, full-length beta-catenin, competitor probe 5FAM-TCF4 10-53.
Target sequence in this assay (P35222 2-781 limits assumed): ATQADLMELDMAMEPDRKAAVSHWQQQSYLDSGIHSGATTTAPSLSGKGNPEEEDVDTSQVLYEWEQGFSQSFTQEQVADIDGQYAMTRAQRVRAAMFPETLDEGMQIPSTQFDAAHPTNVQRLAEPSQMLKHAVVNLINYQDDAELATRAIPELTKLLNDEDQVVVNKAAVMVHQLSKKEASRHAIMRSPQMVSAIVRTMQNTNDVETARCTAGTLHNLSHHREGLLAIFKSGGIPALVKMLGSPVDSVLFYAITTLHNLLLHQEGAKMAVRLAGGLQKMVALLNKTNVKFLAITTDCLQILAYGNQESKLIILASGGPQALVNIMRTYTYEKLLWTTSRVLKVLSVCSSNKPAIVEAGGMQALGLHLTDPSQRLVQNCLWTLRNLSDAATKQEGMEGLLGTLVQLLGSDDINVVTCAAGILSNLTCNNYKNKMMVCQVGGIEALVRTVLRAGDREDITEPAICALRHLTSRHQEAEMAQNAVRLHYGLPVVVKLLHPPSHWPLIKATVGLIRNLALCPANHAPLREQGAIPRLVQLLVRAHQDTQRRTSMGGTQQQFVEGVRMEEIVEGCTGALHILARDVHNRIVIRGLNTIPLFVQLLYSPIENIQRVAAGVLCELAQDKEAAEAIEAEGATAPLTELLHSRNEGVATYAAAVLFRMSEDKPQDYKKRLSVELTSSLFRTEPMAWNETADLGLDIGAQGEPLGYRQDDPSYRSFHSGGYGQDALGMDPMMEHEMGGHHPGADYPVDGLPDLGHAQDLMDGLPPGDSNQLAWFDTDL
In the case of [αAllylPro]D[tBuAla][B5(4)]D[Phe(3-COOH)]AAFF[PyrS2″][Phe(2-Cl)][Bta]Q-NH2 (staple 1-4; staple 4-11 (inferred)) [I-1338], the IC50 came to 10 nM.

[αAllylPro]D[tBuAla][B5(4)]D[Phe(3-COOH)]AAFF[PyrS2″][Phe(2-CF3)][Bta]Q-NH2 (staple 1-4; staple 4-11 (inferred)) [I-1341] showed an IC50 of 17 nM.

[αAllylPro]D[tBuAla][B5(4)]D[Phe(3-COOH)]AAFF[PyrS2″][Phe(2-Cl)][Bta]S-NH2 (staple 1-4; staple 4-11 (inferred)) [I-1339] returned a half-inhibitory concentration (IC50) of 33 nM.

Molecule [αAllylPro]D[tBuAla][B5(4)]D[Phe(3-COOH)]AAFF[PyrS2″][Phe(2-Cl)][Bta][Thr(ol)] (staple 1-4; staple 4-11 (inferred)) [I-1340] displayed an IC50 of 159 nM.

The molecule [αAllylPro]D[tBuAla][B5(4)]D[Phe(3-COOH)]AAFF[PyrS2″][Phe(2-CF3)][Bta]S-NH2 (staple 1-4; staple 4-11 (inferred)) [I-1342] displayed an IC50 of 35 nM.

Another assay addresses Bcat-Halo (UniProt P35222). Kind of assay: NanoBRET Abs IC50, HEK293 cells transfected with Bcat-Halo and TCF4-Luc (competitor: TCF4-Luc); cellular assay.
Ac-[αAllylPro]D[Cha][B5(5)]DDAAFN[PyrS2″][Phe(2-Cl)][Bta]S-NH2 (staple 1-4, 4-11) [I-1046]: the 50% inhibitory concentration (IC50) amounted to 20500 nM.

In turn, Ac-[αAllylPro]D[Cha][B5(5)]DDAAFS[PyrS2][Phe(2-Cl)][Bta]S-NH2 (staple 1-4, 4-11) [I-1050] gave an IC50 of 24800 nM.

In turn, Ac-[αAllylPro]D[Cha][B5(5)]DDAAFS[PyrS2″][Phe(2-Cl)][Bta]Q-NH2 (staple 1-4, 4-11) [I-1044] gave an IC50 of 17600 nM.

Another assay concerns the target full-length beta-Catenin (Uniprot ID P35222) (Homo sapiens (Human)) (UniProt P35222). Briefly: fluorescence polarization competition; full-length beta-catenin, competitor 5FAM-TCF4(10-53) probe.
Target sequence in this assay (P35222 2-781 limits assumed): as above
Regarding [αAllylPro]D[tBuAla][B5(4)]D[Phe(3-COOH)]AAFF[PyrS2″][Phe(2-Cl)][Bta]Q-NH2 (staple 1-4; staple 4-11 (inferred)) [I-1338], the half-maximal effective concentration (EC50) worked out at 10 nM.

In turn, [αAllylPro]D[tBuAla][B5(4)]D[Phe(3-COOH)]AAFF[PyrS2″][Phe(2-CF3)][Bta]Q-NH2 (staple 1-4; staple 4-11 (inferred)) [I-1341] yielded an EC50 of 17 nM.

In turn, [αAllylPro]D[tBuAla][B5(4)]D[Phe(3-COOH)]AAFF[PyrS2″][Phe(2-Cl)][Bta]S-NH2 (staple 1-4; staple 4-11 (inferred)) [I-1339] came in with a concentration for a half-maximal effect (EC50) of 33 nM.

For the molecule [αAllylPro]D[tBuAla][B5(4)]D[Phe(3-COOH)]AAFF[PyrS2″][Phe(2-Cl)][Bta][Thr(ol)] (staple 1-4; staple 4-11 (inferred)) [I-1340], the concentration giving a half-maximal response (EC50) is 159 nM.

Turning to [αAllylPro]D[tBuAla][B5(4)]D[Phe(3-COOH)]AAFF[PyrS2″][Phe(2-CF3)][Bta]S-NH2 (staple 1-4; staple 4-11 (inferred)) [I-1342], the concentration giving a half-maximal response (EC50) came to 35 nM.

For a further assay the target is unchanged. Briefly: FP competition; full-length beta-catenin + 5FAM-TCF4(10-53) probe.
Target sequence in this assay (P35222 whole entry, one chain of several): as the sequence (P35222 whole entry, one chain of several) above
With Ac-[αAllylPro]D[tBuAla][B5(5)]D[Phe(3-COOH)]AAFA[PyrS2″][Phe(2-Cl)][Bta]V-NH2 (staple 1-4, 4-11) [I-2024], the IC50 was found to be 78 nM.

Turning to Ac-[αAllylPro]D[tBuAla][B5(5)]D[Phe(3-COOH)]AAFN[PyrS2″][Phe(2-Cl)][Bta]V-NH2 (staple 1-4, 4-11) [I-2032], the half-inhibitory concentration (IC50) worked out at 16 nM.

In the next assay the target is B-cat-Halo (beta-catenin HaloTag NanoBRET construct expressed in HEK293 cells) (UniProt P35222). Kind of assay: NanoBRET Abs IC50 in HEK293 cells; Bcat-Halo, competitor TCF4-Luc.
Sequence of B-cat-Halo (beta-catenin HaloTag NanoBRET construct expressed in HEK293 cells) (P35222 whole entry): as the sequence (P35222 whole entry, one chain of several) above
As for [αAllylPro]D[tBuAla][B5(4)]D[Phe(3-COOH)]AAFF[PyrS2″][Phe(2-Cl)][Bta]Q-NH2 (staple 1-4; staple 4-11 (inferred)) [I-1338], the IC50 was 3600 nM.

On to [αAllylPro]D[tBuAla][B5(4)]D[Phe(3-COOH)]AAFF[PyrS2″][Phe(2-CF3)][Bta]Q-NH2 (staple 1-4; staple 4-11 (inferred)) [I-1341], for which the 50% inhibitory concentration (IC50) was 3500 nM.

In turn, [αAllylPro]D[tBuAla][B5(4)]D[Phe(3-COOH)]AAFF[PyrS2″][Phe(2-Cl)][Bta]S-NH2 (staple 1-4; staple 4-11 (inferred)) [I-1339] displayed an IC50 of 5200 nM.

In turn, [αAllylPro]D[tBuAla][B5(4)]D[Phe(3-COOH)]AAFF[PyrS2″][Phe(2-Cl)][Bta][Thr(ol)] (staple 1-4; staple 4-11 (inferred)) [I-1340] showed a half-maximal inhibitory concentration (IC50) of 6800 nM.

[αAllylPro]D[tBuAla][B5(4)]D[Phe(3-COOH)]AAFF[PyrS2″][Phe(2-CF3)][Bta]S-NH2 (staple 1-4; staple 4-11 (inferred)) [I-1342] returned a half-maximal inhibitory concentration (IC50) of 7000 nM.

The target in the next assay is full-length beta-Catenin (Uniprot ID P35222) (Homo sapiens (Human)) (UniProt P35222). Kind of assay: fluorescence polarization competition; 10 nM full-length beta-catenin + 10 nM 5FAM-TCF4 10-53 as competitor probe.
Target sequence in this assay (P35222 2-781 limits assumed): as the sequence (P35222 2-781 limits assumed) above
Take Ac-[αAllylPro]D[Cha][B5(5)]DDAAFN[PyrS2″][Phe(2-Cl)][Bta]S-NH2 (staple 1-4, 4-11) [I-1046]: the EC50 is 5 nM.

With Ac-[αAllylPro]D[Cha][B5(5)]DDAAFS[PyrS2][Phe(2-Cl)][Bta]S-NH2 (staple 1-4, 4-11) [I-1050], the 50% effective concentration (EC50) amounted to 5 nM.

In the case of Ac-[αAllylPro]D[Cha][B5(5)]DDAAFS[PyrS2″][Phe(2-Cl)][Bta]Q-NH2 (staple 1-4, 4-11) [I-1044], the concentration giving a half-maximal response (EC50) was found to be 5 nM.

For the next assay the target is unchanged. Kind of assay: cell-based or functional assay.
The molecule Ac-[αAllylPro]D[Cha][B5(5)]DDAAFS[PyrS2][Phe(2-Cl)][Bta]S-NH2 (staple 1-4, 4-11) [I-1050] gave a DLD1 reporter assay Abs IC50 of 11200 nM.

Ac-[αAllylPro]D[Cha][B5(5)]DDAAFS[PyrS2″][Phe(2-Cl)][Bta]Q-NH2 (staple 1-4, 4-11) [I-1044]: the DLD1 4% Abs IC50 was 14500 nM and the DLD1 reporter assay Abs IC50 was determined as 20000 nM.
